Data as given in patent US20240117018A1.

Columns and labels:
Test in all cases: cell-based or functional assay
[1] = target: HIV-1 Env pseudovirus 1006_11_C3_1601 (HIV-1)
[2] = target: HIV-1 Env pseudovirus 1012_11_TC21_3257 (HIV-1)
[3] = target: HIV-1 Env pseudovirus Ce703010054_2A2 (HIV-1)
[4] = target: HIV-1 Env pseudovirus HIV-001428-2.42 (HIV-1)
[5] = target: HIV-1 Env pseudovirus HIV-16055-2.3 (HIV-1)
[6] = target: HIV-1 Env pseudovirus Q23.17 (HIV-1)
[7] = target: HIV-1 Env pseudovirus TRO.11 (HIV-1)
[8] = target: HIV-1 Env pseudovirus WEAU_d15_410_787 (HIV-1)
[9] = target: HIV-1 Env of pseudovirus 6244_13_B5_4576 (HIV-1)
[10] = target: HIV-1 Env of pseudovirus Ce703010054_2A2 (HIV-1)
[11] = target: HIV-1 Env of pseudovirus MS208.A1 (HIV-1)
[12] = target: HIV-1 Env of pseudovirus REJO4541.67 (HIV-1)
[13] = target: HIV-1 Env of pseudovirus RHPA4259.7 (HIV-1)
[14] = target: HIV-1 Env of pseudovirus WITO4160.33 (HIV-1)
[15] = target: HIV-1 Env pseudovirus 6811.v7.c18 (HIV-1)
[16] = target: HIV-1 Env pseudovirus C1080.c03 (HIV-1)
[17] = target: HIV-1 Env pseudovirus C2101.c01 (HIV-1)
[18] = target: HIV-1 Env pseudovirus R1166.c01 (HIV-1)
[19] = target: HIV-1 Env pseudovirus R2184.c04 (HIV-1)

## N49P7.2 (antibody)
[1]
  IC50: 0.085 µg/mL
  IC80: 0.237 µg/mL
  MPI: 100
[2]
  IC50: 0.06 µg/mL
  IC80: 0.285 µg/mL
  MPI: 100
[3]
  IC50: 0.124 µg/mL
  IC80: 0.576 µg/mL
  MPI: 100
[4]
  IC50: 0.01 µg/mL
  IC80: 0.036 µg/mL
  MPI: 100
[5]
  IC50: 0.204 µg/mL
  IC80: 0.721 µg/mL
  MPI: 100
[6]
  IC50: 0.051 µg/mL
  IC80: 0.2 µg/mL
  MPI: 100
[7]
  IC50: 0.113 µg/mL
  IC80: 0.306 µg/mL
  MPI: 100
[8]
  IC50: 0.052 µg/mL
  IC80: 0.15 µg/mL
  MPI: 100

## PGT151 (antibody)
[9]
  neutralization IC50: > 50 µg/mL
  neutralization IC80: > 50 µg/mL
[10]
  neutralization IC50: 0.013 µg/mL
  neutralization IC80: 0.075 µg/mL
[11]
  neutralization IC50: < 0.001 µg/mL
  neutralization IC80: 0.003 µg/mL
[12]
  neutralization IC50: 0.018 µg/mL
  neutralization IC80: 0.119 µg/mL
[13]
  neutralization IC50: 0.006 µg/mL
  neutralization IC80: 0.033 µg/mL
[14]
  neutralization IC50: 0.002 µg/mL
  neutralization IC80: 0.021 µg/mL

## PGT145 (antibody)
[9]
  neutralization IC50: 7.27 µg/mL
  neutralization IC80: 44.5 µg/mL
[10]
  neutralization IC50: > 50 µg/mL
  neutralization IC80: > 50 µg/mL
[11]
  neutralization IC50: 0.334 µg/mL
  neutralization IC80: 18 µg/mL
[12]
  neutralization IC50: < 0.001 µg/mL
  neutralization IC80: 0.001 µg/mL
[13]
  neutralization IC50: 0.029 µg/mL
  neutralization IC80: 0.095 µg/mL
[14]
  neutralization IC50: < 0.001 µg/mL
  neutralization IC80: 0.001 µg/mL

## PGDM1400 (antibody)
[9]
  neutralization IC50: > 50 µg/mL
  neutralization IC80: > 50 µg/mL
[10]
  neutralization IC50: 0.015 µg/mL
  neutralization IC80: 0.26 µg/mL
[11]
  neutralization IC50: < 0.001 µg/mL
  neutralization IC80: 0.139 µg/mL
[12]
  neutralization IC50: 0.028 µg/mL
  neutralization IC80: 0.992 µg/mL
[13]
  neutralization IC50: 0.447 µg/mL
  neutralization IC80: 2.19 µg/mL
[14]
  neutralization IC50: < 0.001 µg/mL
  neutralization IC80: 0.008 µg/mL

## NIH 45-46 (antibody)
[9]
  IC50: 0.07 µg/mL
  IC80: 0.26 µg/mL
[10]
  IC50: 0.22 µg/mL
  IC80: 0.97 µg/mL
[11]
  IC50: 0.09 µg/mL
  IC80: 0.6 µg/mL
[12]
  IC50: 0.003 µg/mL
  IC80: 0.01 µg/mL
[13]
  IC50: < 0.05 µg/mL
  IC80: < 0.05 µg/mL
[14]
  IC50: 0.01 µg/mL
  IC80: 0.08 µg/mL

## PGT128 (antibody)
[9]
  neutralization IC50: 0.02 µg/mL
  neutralization IC80: 0.076 µg/mL
[10]
  neutralization IC50: > 50 µg/mL
  neutralization IC80: > 50 µg/mL
[11]
  neutralization IC50: > 50 µg/mL
  neutralization IC80: > 50 µg/mL
[12]
  neutralization IC50: > 50 µg/mL
  neutralization IC80: > 50 µg/mL
[13]
  neutralization IC50: 0.026 µg/mL
  neutralization IC80: 0.109 µg/mL
[14]
  neutralization IC50: > 50 µg/mL
  neutralization IC80: > 50 µg/mL

## VRC01 (antibody)
[1]
  IC50 (Titer in TZM.bl cells): 0.15 µg/mL
  IC80 (Titer in TZM.bl cells): 0.39 µg/mL
[2]
  IC50 (Titer in TZM.bl cells): 0.12 µg/mL
  IC80 (Titer in TZM.bl cells): 0.32 µg/mL
[15]
  IC50 (Titer in TZM.bl cells): 0.09 µg/mL
  IC80 (Titer in TZM.bl cells): 0.26 µg/mL
[16]
  IC50 (Titer in TZM.bl cells): 3.4 µg/mL
  IC80 (Titer in TZM.bl cells): 14.4 µg/mL
[17]
  IC50 (Titer in TZM.bl cells): 0.36 µg/mL
  IC80 (Titer in TZM.bl cells): 1.17 µg/mL
[3]
  IC50 (Titer in TZM.bl cells): 0.53 µg/mL
  IC80 (Titer in TZM.bl cells): 1.84 µg/mL
[4]
  IC50 (Titer in TZM.bl cells): 0.02 µg/mL
  IC80 (Titer in TZM.bl cells): 0.06 µg/mL
[5]
  IC50 (Titer in TZM.bl cells): 0.08 µg/mL
  IC80 (Titer in TZM.bl cells): 0.26 µg/mL
[6]
  IC50 (Titer in TZM.bl cells): 0.09 µg/mL
  IC80 (Titer in TZM.bl cells): 0.261 µg/mL
[18]
  IC50 (Titer in TZM.bl cells): 1.7 µg/mL
  IC80 (Titer in TZM.bl cells): 4.58 µg/mL
[19]
  IC50 (Titer in TZM.bl cells): 0.08 µg/mL
  IC80 (Titer in TZM.bl cells): 0.32 µg/mL
[7]
  IC50 (Titer in TZM.bl cells): 0.21 µg/mL
  IC80 (Titer in TZM.bl cells): 0.83 µg/mL
[8]
  IC50 (Titer in TZM.bl cells): 0.12 µg/mL
  IC80 (Titer in TZM.bl cells): 0.26 µg/mL
